Here are results for six molecules from article PMC5778602 (Nucleic Acids Research, 2017).

Sequences and labels used below:
B2: full length GST-CstF-50 fusion protein (natural protein, human, UniProt Q05048 1-431, looked up)
chain: MYRTKVGLKDRQQLYKLIISQLLYDGYISIANGLINEIKPQSVCAPSEQLLHLIKLGMENDDTAVQYAIGRSDTVAPGTGIDLEFDADVQTMSPEASEYETCYVTSHKGPCRVATYSRDGQLIATGSADASIKILDTERMLAKSAMPIEVMMNETAQQNMENHPVIRTLYDHVDEVTCLAFHPTEQILASGSRDYTLKLFDYSKPSAKRAFKYIQEAEMLRSISFHPSGDFILVGTQHPTLRLYDINTFQCFVSCNPQDQHTDAICSVNYNSSANMYVTGSKDGCIKLWDGVSNRCITTFEKAHDGAEVCSAIFSKNSKYILSSGKDSVAKLWEISTGRTLVRYTGAGLSGRQVHRTQAVFNHTEDYVLLPDERTISLCCWDSRTAERRNLLSLGHNNIVRCIVHSPTNPGFMTCSDDFRARFWYRRSTTD
B5: CstF-77ΔN (domain or fragment, human, UniProt Q12996 241-717, looked up)
chain: NTPQEAQQVDMWKKYIQWEKSNPLRTEDQTLITKRVMFAYEQCLLVLGHHPDIWYEAAQYLEQSSKLLAEKGDMNNAKLFSDEAANIYERAISTLLKKNMLLYFAYADYEESRMKYEKVHSIYNRLLAIEDIDPTLVYIQYMKFARRAEGIKSGRMIFKKAREDTRTRHHVYVTAALMEYYCSKDKSVAFKIFELGLKKYGDIPEYVLAYIDYLSHLNEDNNTRVLFERVLTSGSLPPEKSGEIWARFLAFESNIGDLASILKVEKRRFTAFKEEYEGKETALLVDRYKFMDLYPCSASELKALGYKDVSRAKLAAIIPDPVVAPSIVPVLKDEVDRKPEYPKPDTQQMIPFQPRHLAPPGLHPVPGGVFPVPPAAVVLMKLLPPPICFQGPFVQVDELMEIFRRCKIPNTVEEAVRIITGGAPELAVEGNGPVESNAVLTKAVKRPNEDSDEDEEKGAVVPPVHDIYRARQQKRIR

Data set [1] has as its target B2. The data set can be described thus: pull-down.
For data set [2], the target named is B5. The data set can be described thus: pull-down.
Data set [3] has as its target B5. As to the kind of experiment: SEC. For orientation: Size exclusion chromatography separates by hydrodynamic size, large species first.
The target of another data set is T1, WD40 domain of CstF-50 (human, UniProt Q05048 80-431).
T1 sequence: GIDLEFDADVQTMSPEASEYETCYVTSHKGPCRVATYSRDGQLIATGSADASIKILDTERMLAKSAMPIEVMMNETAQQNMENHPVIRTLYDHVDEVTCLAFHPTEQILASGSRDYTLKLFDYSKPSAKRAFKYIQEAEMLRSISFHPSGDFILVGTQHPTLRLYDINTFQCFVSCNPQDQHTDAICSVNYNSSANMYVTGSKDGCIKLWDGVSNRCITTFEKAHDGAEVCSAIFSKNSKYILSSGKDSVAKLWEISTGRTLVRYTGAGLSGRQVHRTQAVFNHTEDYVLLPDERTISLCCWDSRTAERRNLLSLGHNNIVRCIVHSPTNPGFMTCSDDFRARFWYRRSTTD
The data set can be described thus: ITC. In general terms: ITC needs no label: the signal is the heat of the interaction.

The data set “SEC-MALS” deals with the molecule itself. The data set can be described thus: SEC-MALS.

In general, Kd refers to the equilibrium constant for the complex coming apart. For orientation: stoichiometry N means a count of units in the complex or per binding partner.

B1: CstF-77 (residues 241–610) (domain or fragment, human, UniProt Q12996 241-610, looked up)
chain: NTPQEAQQVDMWKKYIQWEKSNPLRTEDQTLITKRVMFAYEQCLLVLGHHPDIWYEAAQYLEQSSKLLAEKGDMNNAKLFSDEAANIYERAISTLLKKNMLLYFAYADYEESRMKYEKVHSIYNRLLAIEDIDPTLVYIQYMKFARRAEGIKSGRMIFKKAREDTRTRHHVYVTAALMEYYCSKDKSVAFKIFELGLKKYGDIPEYVLAYIDYLSHLNEDNNTRVLFERVLTSGSLPPEKSGEIWARFLAFESNIGDLASILKVEKRRFTAFKEEYEGKETALLVDRYKFMDLYPCSASELKALGYKDVSRAKLAAIIPDPVVAPSIVPVLKDEVDRKPEYPKPDTQQMIPFQPRHLAPPGLHPVPGGVF
B1: in data set [1], the binding result is reported as “binds”. B2: the binding result in the data set with CstF-77ΔN [2] is “binds”.

B3: CstF-50 (full length, affinity tag removed) (natural protein, human, UniProt Q05048 1-431, looked up)
chain: MYRTKVGLKDRQQLYKLIISQLLYDGYISIANGLINEIKPQSVCAPSEQLLHLIKLGMENDDTAVQYAIGRSDTVAPGTGIDLEFDADVQTMSPEASEYETCYVTSHKGPCRVATYSRDGQLIATGSADASIKILDTERMLAKSAMPIEVMMNETAQQNMENHPVIRTLYDHVDEVTCLAFHPTEQILASGSRDYTLKLFDYSKPSAKRAFKYIQEAEMLRSISFHPSGDFILVGTQHPTLRLYDINTFQCFVSCNPQDQHTDAICSVNYNSSANMYVTGSKDGCIKLWDGVSNRCITTFEKAHDGAEVCSAIFSKNSKYILSSGKDSVAKLWEISTGRTLVRYTGAGLSGRQVHRTQAVFNHTEDYVLLPDERTISLCCWDSRTAERRNLLSLGHNNIVRCIVHSPTNPGFMTCSDDFRARFWYRRSTTD
With B3, the binding result with CstF-77ΔN [3] is given as “binds”.

B4: CstF-77 peptide (residues 581–600) (peptide, UniProt Q12996 581-600, looked up)
peptide: YPKPDTQQMIPFQPRHLAPP
For B4, in the data set with WD40 domain of CstF-50, the Kd was around 200 nM and the “stoichiometry N” value is 1.

As to B5, in “SEC-MALS”, the “stoichiometry N” value turned out to be 2.

B6: CstF-77 (residues 241–600) (domain or fragment, human, UniProt Q12996 241-600, looked up)
chain: NTPQEAQQVDMWKKYIQWEKSNPLRTEDQTLITKRVMFAYEQCLLVLGHHPDIWYEAAQYLEQSSKLLAEKGDMNNAKLFSDEAANIYERAISTLLKKNMLLYFAYADYEESRMKYEKVHSIYNRLLAIEDIDPTLVYIQYMKFARRAEGIKSGRMIFKKAREDTRTRHHVYVTAALMEYYCSKDKSVAFKIFELGLKKYGDIPEYVLAYIDYLSHLNEDNNTRVLFERVLTSGSLPPEKSGEIWARFLAFESNIGDLASILKVEKRRFTAFKEEYEGKETALLVDRYKFMDLYPCSASELKALGYKDVSRAKLAAIIPDPVVAPSIVPVLKDEVDRKPEYPKPDTQQMIPFQPRHLAPP
In the case of B6, the binding result in data set [1] is reported as “binds”.
